# Source: patent publication US20250243281A1 (IMMUNITAS THERAPEUTICS, published 2025)
# Substitutions are numbered along the chain they refer to.
# T1: hCLEC2D (human, UniProt Q9UHP7 1-191)
# T1 construct: Overexpressed on HEK293 or K562 cells; the same id is used for endogenous CLEC2D on NALM6 and Raji cells; also called LLT1
# T1 sequence: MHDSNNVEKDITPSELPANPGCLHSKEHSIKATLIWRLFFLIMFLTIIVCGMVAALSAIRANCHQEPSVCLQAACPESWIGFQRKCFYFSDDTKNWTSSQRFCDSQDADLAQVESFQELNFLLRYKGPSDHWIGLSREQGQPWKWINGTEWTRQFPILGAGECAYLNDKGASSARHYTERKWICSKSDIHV
# T2: hKLRF1 (human, UniProt Q9NZS2 1-231)
# T2 construct: Overexpressed on HEK293 cells
# T2 sequence: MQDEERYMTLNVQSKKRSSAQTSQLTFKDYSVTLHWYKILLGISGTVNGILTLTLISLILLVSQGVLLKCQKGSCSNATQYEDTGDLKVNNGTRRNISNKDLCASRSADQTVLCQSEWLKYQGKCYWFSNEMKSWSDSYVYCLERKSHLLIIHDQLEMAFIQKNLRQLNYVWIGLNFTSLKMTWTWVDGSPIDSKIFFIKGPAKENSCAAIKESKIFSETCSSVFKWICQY
# T3: hKLRF2 (human, UniProt D3W0D1 1-207)
# T3 construct: Overexpressed on HEK293 cells
# T3 sequence: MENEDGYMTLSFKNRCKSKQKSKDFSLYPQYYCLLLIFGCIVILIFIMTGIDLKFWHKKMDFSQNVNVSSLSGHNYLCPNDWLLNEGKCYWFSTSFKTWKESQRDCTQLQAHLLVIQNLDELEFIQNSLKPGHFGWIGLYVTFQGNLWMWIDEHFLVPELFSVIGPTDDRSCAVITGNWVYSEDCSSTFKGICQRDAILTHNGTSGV
# T4: hCLEC12B (human, UniProt Q2HXU8 1-276)
# T4 construct: Overexpressed on HEK293 cells
# T4 sequence: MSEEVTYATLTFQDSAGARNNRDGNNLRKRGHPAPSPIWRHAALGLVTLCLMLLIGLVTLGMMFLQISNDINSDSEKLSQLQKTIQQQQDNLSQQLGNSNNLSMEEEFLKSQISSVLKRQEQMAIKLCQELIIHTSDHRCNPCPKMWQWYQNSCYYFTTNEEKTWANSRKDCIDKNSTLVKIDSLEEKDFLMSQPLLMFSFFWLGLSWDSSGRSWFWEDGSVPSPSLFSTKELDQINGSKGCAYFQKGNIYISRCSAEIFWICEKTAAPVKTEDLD
# B1: Ab3 (antibody, human IgG1, V domains shown)
# VH: EVQLLESGGGLVQPGGSLRLSCAASGFTFERYAMSWVRQAPGKGLEWVSAISAAGGTTYYADSVKGRFTISRDNSKNTLYLQMNSLRAEDTAVYYCAKPLDSSQWADFDLWGRGTLVTVSS
# VL: DIQLTQSPSSVSASVGDRVTITCRASQDISSWLAWYQQKPGKAPKFLIYAASALQSGVPSRFSGSGSGTDFTLTISSLQPEDFATYYCQQALVLPITFGGGTKVEIK
# notes: IgG purified from yeast culture
# B2: Ab10 (antibody, human IgG1, V domains shown)
# VH: B1 VH with E30S, R31Q, A54V, T57S
# VL: B1 VL with F46L, L92D
# notes: as for B1
# B3: Ab11 (antibody, human IgG1, V domains shown)
# VH: B1 VH with E30S, R31Q
# VL: B1 VL with D28G, S30Y, F46L, A53S, L92S, V93D
# notes: as for B1
# B4: Ab18 (antibody, human IgG1, V domains shown)
# VH: QVQLVESGGGLVKPGGSLRLSCAASGFTFSQYYMSWIRQAPGKGLEWVSYISPSGATIAYADSVKGRFTISRDNAKNSLYLQMNSLRAEDTAVYYCARSLMATGTHLYFDLWGRGTLVTVSS
# VL: DIQLTQSPSSVSASVGDRVTITCRASQGISSWLAWYQQKPGKAPKLLIYAAESLQSGVPSRFSGSGSGTDFTLTISSLQPEDFATYYCQQVTSQPPYTFGGGTKVEIK
# notes: as for B1
# B5: Ab12 (antibody, human IgG1, V domains shown)
# VH: B4 VH with S30A, A56S
# VL: B4 VL with G28D, E52S, Q94F
# notes: as for B1
# B6: Ab13 (antibody, human IgG1, V domains shown)
# VH: B4 VH with S30A, Q31N
# VL: B4 VL with Q27S, E52S, S53E, V91A, Q94F
# notes: as for B1
# B7: Ab14 (antibody, human IgG1, V domains shown)
# VH: B4 VH with S30G, A102S
# VL: B4 VL with S31D, E52S, Q94F
# notes: as for B1
# B8: Ab15 (antibody, human IgG1, V domains shown)
# VH: B4 VH with S30P, A59Y, A102S
# VL: B4 VL with E52S, Q94T
# notes: as for B1
# B9: Ab16 (antibody, human IgG1, V domains shown)
# VH: B4 VH with Q31D, A75S, S78T
# VL: B4 VL with E52S, S53G, V91S, Q94F
# notes: as for B1
# B10: Ab17 (antibody, human IgG1, V domains shown)
# VH: B4 VH with Q31D, A59Y, A102S
# VL: B4 VL with E52S, Q94V
# notes: as for B1
# B11: Ab20 (antibody, human IgG1, V domains shown)
# VH: B4 VH with K13Q, A102S
# VL: B4 VL with E52S, S53V, Q94F, P95L
# notes: as for B1
# B12: Ab19 (antibody, human IgG1, V domains shown)
# VH: B4 VH with A59Y
# VL: B4 VL with E52S, S53A, Q94A
# notes: as for B1
# Target: T1, hCLEC2D
# Test: flow cytometry, HEK293 transfectants, 100 nM antibody;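 also: antibody applied at a saturating level and incubated with cells for 30 min at room temperature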
# Description: (§1) For the antibody binding assay, all cell lines were washed in phosphate-buffered saline with 0.1% bovine serum albumin (PBSA) and seeded in a 96 well plate at a density of 4×10⁴ cells per well. Washed cells were resuspended in 100 nM of antibody (a saturating concentration to measure maximum binding on cells) and incubated at room temperature for 30 minutes. […] Cells were analyzed by flow cytometry with a Thermo Fisher Attune flow cytometer.
# (§2) Data were analyzed using FlowJo software. MFI for each sample was calculated and exported into Graphpad Prism.
row,Binder,% of CD161 binding
1,B1,0.832%
2,B2,0.935%
3,B3,0.785%
4,B4,0.865%
5,B5,1.16%
6,B6,0.907%
7,B7,1.02%
8,B8,0.935%
9,B9,0.865%
10,B10,1.08%
11,B11,0.968%
12,B12,0.97%

# Target: T2, hKLRF1
# Test: as above
# Description: as §1, §2
row,Binder,% of CD161 binding
1,B1,0.011%
2,B2,0.046%
3,B3,0.024%
4,B4,0.121%
5,B5,0.065%
6,B6,0.106%
7,B7,0.09%
8,B8,0.114%
9,B9,0.061%
10,B10,0.078%
11,B11,0.132%
12,B12,0.305%

# Target: T3, hKLRF2
# Test: as above
# Description: as §1, §2
row,Binder,% of CD161 binding
1,B1,-0.007%
2,B2,0.004%
3,B3,0.021%
4,B4,0.101%
5,B5,0.055%
6,B6,0.089%
7,B7,0.054%
8,B8,0.067%
9,B9,0.048%
10,B10,0.051%
11,B11,0.054%
12,B12,0.22%

# Target: T4, hCLEC12B
# Test: as above
# Description: as §1, §2
row,Binder,% of CD161 binding
1,B1,-0.042%
2,B2,-0.004%
3,B3,-0.003%
4,B4,0.169%
5,B5,0.061%
6,B6,0.175%
7,B7,0.064%
8,B8,0.071%
9,B9,0.088%
10,B10,0.038%
11,B11,0.061%
12,B12,0.26%

# Target: T2, hKLRF1
# Test: flow cytometry; 100 nM antibody on HEK293 cells expressing KLRF1; Alexa Fluor 647 anti-human IgG; MFI
# Description: as §1, §2
row,Binder,binding result
1,B1,no binding (tested: 100 nM)
2,B2,no binding (tested: 100 nM)
3,B3,no binding (tested: 100 nM)

# Target: T3, hKLRF2
# Test: flow cytometry; 100 nM antibody on HEK293 cells expressing KLRF2; Alexa Fluor 647 anti-human IgG; MFI
# Description: as §1, §2
row,Binder,binding result
1,B2,no binding (tested: 100 nM)
2,B3,no binding (tested: 100 nM)

# Target: T2, hKLRF1
# Test: flow cytometry; 100 nM antibody on HEK293 cells expressing KLRF1; Alexa Fluor 647 anti-human IgG; MFI
# Remark: another data set of the same source
# Description: as §1, §2
row,Binder,binding result
1,B4,no binding (tested: 100 nM)
2,B5,no binding (tested: 100 nM)
3,B6,no binding (tested: 100 nM)
4,B7,no binding (tested: 100 nM)
5,B8,no binding (tested: 100 nM)
6,B9,no binding (tested: 100 nM)
7,B10,no binding (tested: 100 nM)
8,B11,no binding (tested: 100 nM)
9,B12,no binding (tested: 100 nM)

# Target: T3, hKLRF2
# Test: flow cytometry; 100 nM antibody on HEK293 cells expressing KLRF2; Alexa Fluor 647 anti-human IgG; MFI
# Remark: another data set of the same source
# Description: as §1, §2
row,Binder,binding result
1,B4,no binding (tested: 100 nM)
2,B5,no binding (tested: 100 nM)
3,B6,no binding (tested: 100 nM)
4,B7,no binding (tested: 100 nM)
5,B8,no binding (tested: 100 nM)
6,B9,no binding (tested: 100 nM)
7,B10,no binding (tested: 100 nM)
8,B11,no binding (tested: 100 nM)
9,B12,no binding (tested: 100 nM)

# Target: T1, hCLEC2D
# Test: flow cytometry; 100 nM antibody on HEK293 cells expressing CLEC2D; Alexa Fluor 647 anti-human IgG; MFI
# Description: as §1, §2
row,Binder,binding result
1,B1,no binding (tested: 100 nM)
2,B2,no binding (tested: 100 nM)
3,B3,no binding (tested: 100 nM)

# Target: T1, hCLEC2D
# Test: as above
# Remark: another data set of the same source
# Description: as §1, §2
row,Binder,binding result
1,B4,no binding (tested: 100 nM)
2,B5,no binding (tested: 100 nM)
3,B6,no binding (tested: 100 nM)
4,B7,no binding (tested: 100 nM)
5,B8,no binding (tested: 100 nM)
6,B9,no binding (tested: 100 nM)
7,B10,no binding (tested: 100 nM)
8,B11,no binding (tested: 100 nM)
9,B12,no binding (tested: 100 nM)

# Target: T4, hCLEC12B
# Test: flow cytometry; 100 nM antibody on HEK293 cells expressing CLEC12B; Alexa Fluor 647 anti-human IgG; MFI
# Description: as §1, §2
row,Binder,binding result
1,B4,no binding (tested: 100 nM)
2,B5,no binding (tested: 100 nM)
3,B6,no binding (tested: 100 nM)
4,B7,no binding (tested: 100 nM)
5,B8,no binding (tested: 100 nM)
6,B9,no binding (tested: 100 nM)
7,B10,no binding (tested: 100 nM)
8,B11,no binding (tested: 100 nM)
9,B12,no binding (tested: 100 nM)
